Experimental data taken from article PMC6657595, “A DNA-Binding Protein Tunes Septum Placement during Bacillus subtilis Sporulation”.

How the values were obtained:
Assay in all cases: EMSA
Conditions in all cases: 150 mM KCl, 10 mM Tris-HCl pH 8.0; EMSA 10 nM DNA, 30 min, gel at room temperature; BLI 800 nM protein, 30 C
[1] = biological target: T1, RefZ E117D-His6 E117D (Bacillus subtilis 168) (UniProt O34970)
T1 sequence: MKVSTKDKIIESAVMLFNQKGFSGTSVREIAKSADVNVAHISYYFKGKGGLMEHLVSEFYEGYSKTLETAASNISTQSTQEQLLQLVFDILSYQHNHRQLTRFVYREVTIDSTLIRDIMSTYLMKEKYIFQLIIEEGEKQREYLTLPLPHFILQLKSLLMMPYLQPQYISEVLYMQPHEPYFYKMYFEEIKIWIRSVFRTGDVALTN

[2] = biological target: T2, RefZ E117G-His6 E117G (Bacillus subtilis 168) (UniProt O34970)
T2 sequence: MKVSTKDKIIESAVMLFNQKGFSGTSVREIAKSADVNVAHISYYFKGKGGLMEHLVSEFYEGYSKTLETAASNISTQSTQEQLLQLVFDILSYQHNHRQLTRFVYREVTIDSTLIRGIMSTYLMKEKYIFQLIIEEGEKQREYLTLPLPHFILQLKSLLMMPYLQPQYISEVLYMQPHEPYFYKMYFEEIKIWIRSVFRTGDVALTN

[3] = biological target: T3, RefZ E179K-His6 E179K (Bacillus subtilis 168) (UniProt O34970)
T3 sequence: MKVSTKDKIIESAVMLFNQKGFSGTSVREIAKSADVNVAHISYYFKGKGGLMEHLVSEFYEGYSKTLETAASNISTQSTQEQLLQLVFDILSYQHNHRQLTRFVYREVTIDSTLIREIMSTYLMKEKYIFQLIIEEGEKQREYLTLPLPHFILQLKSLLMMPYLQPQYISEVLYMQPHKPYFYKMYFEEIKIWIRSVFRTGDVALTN

[4] = biological target: T4, RefZ E53K-His6 E53K (Bacillus subtilis 168) (UniProt O34970)
T4 sequence: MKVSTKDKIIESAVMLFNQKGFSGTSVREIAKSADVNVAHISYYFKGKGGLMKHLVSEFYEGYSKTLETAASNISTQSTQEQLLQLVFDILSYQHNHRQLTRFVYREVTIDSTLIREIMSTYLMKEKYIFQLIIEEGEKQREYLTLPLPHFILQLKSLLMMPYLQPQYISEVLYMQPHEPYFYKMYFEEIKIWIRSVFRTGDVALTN

[5] = biological target: T5, RefZ E61K-His6 E61K (Bacillus subtilis 168) (UniProt O34970)
T5 sequence: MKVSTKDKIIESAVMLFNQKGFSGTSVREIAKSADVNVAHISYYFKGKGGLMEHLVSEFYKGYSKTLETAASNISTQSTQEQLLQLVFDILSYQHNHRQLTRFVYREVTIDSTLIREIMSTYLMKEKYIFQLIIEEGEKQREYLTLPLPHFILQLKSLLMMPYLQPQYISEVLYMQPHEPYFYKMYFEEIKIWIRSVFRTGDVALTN

[6] = biological target: T6, RefZ L153R-His6 L153R (Bacillus subtilis 168) (UniProt O34970)
T6 sequence: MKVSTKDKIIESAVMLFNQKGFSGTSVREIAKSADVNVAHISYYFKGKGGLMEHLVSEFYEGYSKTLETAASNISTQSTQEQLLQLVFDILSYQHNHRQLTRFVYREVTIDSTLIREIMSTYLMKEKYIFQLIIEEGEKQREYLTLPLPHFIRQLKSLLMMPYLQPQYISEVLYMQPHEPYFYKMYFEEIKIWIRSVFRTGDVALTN

[7] = biological target: T7, RefZ R102C-His6 R102C (Bacillus subtilis 168) (UniProt O34970)
T7 sequence: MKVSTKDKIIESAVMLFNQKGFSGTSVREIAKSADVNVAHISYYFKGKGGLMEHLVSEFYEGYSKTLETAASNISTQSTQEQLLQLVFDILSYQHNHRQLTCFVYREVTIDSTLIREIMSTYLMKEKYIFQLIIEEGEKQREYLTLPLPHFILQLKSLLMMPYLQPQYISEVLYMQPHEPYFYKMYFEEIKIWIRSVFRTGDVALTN

[8] = biological target: T8, RefZ R102S-His6 R102S (Bacillus subtilis 168) (UniProt O34970)
T8 sequence: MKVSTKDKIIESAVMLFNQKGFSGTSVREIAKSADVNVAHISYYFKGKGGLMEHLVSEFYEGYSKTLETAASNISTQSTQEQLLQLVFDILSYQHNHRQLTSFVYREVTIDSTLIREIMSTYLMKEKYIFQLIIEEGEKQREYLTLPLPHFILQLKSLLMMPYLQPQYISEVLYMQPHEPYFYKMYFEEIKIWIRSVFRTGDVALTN

[9] = biological target: T9, RefZ R116S-His6 R116S (Bacillus subtilis 168) (UniProt O34970)
T9 sequence: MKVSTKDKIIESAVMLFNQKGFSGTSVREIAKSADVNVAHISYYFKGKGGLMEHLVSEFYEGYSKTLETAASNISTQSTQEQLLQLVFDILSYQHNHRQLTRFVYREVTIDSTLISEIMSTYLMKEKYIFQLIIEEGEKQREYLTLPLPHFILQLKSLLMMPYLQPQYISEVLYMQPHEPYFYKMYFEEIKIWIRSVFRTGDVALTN

[10] = biological target: T10, RefZ R116W-His6 R116W (Bacillus subtilis 168) (UniProt O34970)
T10 sequence: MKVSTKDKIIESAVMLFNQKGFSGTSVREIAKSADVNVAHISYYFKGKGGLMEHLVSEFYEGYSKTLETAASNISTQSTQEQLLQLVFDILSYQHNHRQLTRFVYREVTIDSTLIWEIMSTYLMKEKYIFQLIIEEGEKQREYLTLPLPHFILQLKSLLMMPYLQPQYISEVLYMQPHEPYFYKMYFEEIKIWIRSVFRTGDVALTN

[11] = biological target: T11, RefZ-His6 (WT) (Bacillus subtilis PY79) (UniProt O34970)
T11 sequence: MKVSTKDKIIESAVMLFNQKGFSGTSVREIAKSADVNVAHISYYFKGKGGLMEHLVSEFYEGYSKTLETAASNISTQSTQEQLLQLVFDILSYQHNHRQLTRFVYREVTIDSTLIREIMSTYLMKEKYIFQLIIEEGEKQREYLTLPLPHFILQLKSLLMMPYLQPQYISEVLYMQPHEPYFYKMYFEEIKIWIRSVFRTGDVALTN

ATCAGCGCTCTGGTGATTGCAAGCTGCTGCTGTTGACCGCCTTTTCGTTTTGAACAAACGTTTGATTAAAACAAATAGCCCCCTCTGTTTAGCCGGAGTCGGCCTAATACAGCGACAATCTGCCCCGGGCGAAGCTAAGGCTGTGCAAAA (double strand) [RBML1 150-bp probe]
binding [1]: binds
binding [2]: binds
binding [3]: binds
binding [4]: binds
binding [5]: binds
binding [6]: binds more weakly
binding [7]: binds
binding [8]: binds
binding [9]: binds
binding [10]: binds
binding [11]: binds
